# Experimental data published in paper doi:10.1101/2019.12.13.875658 (bioRxiv, 2019).
# B1: Cyclic AMP receptor protein (CAP) (natural protein)
# chain: MVLGKPQTDPTLEWFLSHCHIHKYPSKSTLIHQGEKAETLYYIVKGSVAVLIKDEEGKEMILSYLNQGDFIGELGLFEEGQERSAWVRAKTACEVAEISYKKFRQLIQVNPDILMRLSAQMARRLQVTSEKVGNLAFLDVTGRIAQTLLNLAKQPDAMTHPDGMQIKITRQEIGQIVGCSRETVGRILKMLEDQNLISAHGKTIVVYGTR
# Columns and labels:
# [1] = biological target: the molecule itself; test: cryo-EM structure
# [2] = biological target: β subunit of RNAP (E. coli, UniProt P0A8V2 1-1342); test: cryo-EM structure
# Chain of β subunit of RNAP (P0A8V2 whole entry): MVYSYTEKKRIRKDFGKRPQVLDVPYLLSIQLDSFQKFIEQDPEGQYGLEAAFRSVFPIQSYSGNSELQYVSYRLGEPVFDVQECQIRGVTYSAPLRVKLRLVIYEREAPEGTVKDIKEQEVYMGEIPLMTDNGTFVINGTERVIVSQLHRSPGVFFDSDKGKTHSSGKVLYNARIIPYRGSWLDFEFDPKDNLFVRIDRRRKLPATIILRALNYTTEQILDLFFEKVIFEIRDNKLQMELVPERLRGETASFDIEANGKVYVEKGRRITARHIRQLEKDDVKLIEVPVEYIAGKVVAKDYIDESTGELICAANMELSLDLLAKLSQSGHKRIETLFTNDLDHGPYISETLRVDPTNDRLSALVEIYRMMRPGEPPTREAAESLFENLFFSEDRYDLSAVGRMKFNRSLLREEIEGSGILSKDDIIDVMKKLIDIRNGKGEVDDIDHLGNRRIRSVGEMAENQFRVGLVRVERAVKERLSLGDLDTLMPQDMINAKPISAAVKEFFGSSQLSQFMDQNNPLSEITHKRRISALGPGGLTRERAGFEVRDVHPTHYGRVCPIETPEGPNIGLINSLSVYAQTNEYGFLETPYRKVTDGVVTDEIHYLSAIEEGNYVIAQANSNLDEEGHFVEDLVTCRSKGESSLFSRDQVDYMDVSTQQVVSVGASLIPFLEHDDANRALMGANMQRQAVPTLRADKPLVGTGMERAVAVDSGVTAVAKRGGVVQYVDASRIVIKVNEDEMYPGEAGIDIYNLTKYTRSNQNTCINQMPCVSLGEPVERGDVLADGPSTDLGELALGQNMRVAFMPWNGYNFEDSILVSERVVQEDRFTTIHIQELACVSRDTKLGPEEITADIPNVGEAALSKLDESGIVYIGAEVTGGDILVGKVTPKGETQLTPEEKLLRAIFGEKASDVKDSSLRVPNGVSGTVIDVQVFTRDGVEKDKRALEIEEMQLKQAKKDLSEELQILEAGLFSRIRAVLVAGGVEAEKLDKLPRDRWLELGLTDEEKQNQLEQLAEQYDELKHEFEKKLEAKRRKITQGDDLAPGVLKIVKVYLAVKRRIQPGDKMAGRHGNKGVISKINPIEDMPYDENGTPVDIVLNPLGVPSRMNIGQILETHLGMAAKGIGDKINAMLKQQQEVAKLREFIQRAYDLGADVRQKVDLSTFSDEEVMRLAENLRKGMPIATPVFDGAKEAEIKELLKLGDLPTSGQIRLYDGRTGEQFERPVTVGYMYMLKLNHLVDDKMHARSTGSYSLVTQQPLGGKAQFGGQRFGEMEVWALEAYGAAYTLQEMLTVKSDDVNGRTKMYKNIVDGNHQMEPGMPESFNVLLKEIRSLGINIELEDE
binder,measurement,setting,value
B1,stoichiometry N,[1],2
same,binding result,[2],binds
